In patent publication US20250250593A1, “METHOD FOR PREPARING ALPHA-BRANCHED BETA'-HYDROXY CARBONYL COMPOUNDS BY ENZYMATIC-CATALYZED REDUCTIVE ALDOL REACTION” (Max-Planck-Gesellschaft zur Förderung der Wissenschaften …, priority 2022, published 2025):

How the values were obtained:
KsCcr [1] = assay: HPLC analysis of reaction products: 2-HMB-CoA formed over total products from crotonyl-CoA and formaldehyde; assay type: biochemical, Kitasatospora setae; settings: for Ratio of 2-HMB-CoA formed over total products: triplicates, mean ± standard deviation, values given as %
Excerpt: KsCcr wild-type (WT) natively promotes the NADPH-dependent reductive carboxylation of crotonyl-CoA into ethylmalonyl-CoA. […] Under these conditions, neither ethylmalonyl-CoA (carboxylation product) nor butyryl-CoA (reduction side product) were detected with LC-MS (see Table 2 further below). […] The compound was isolated and its structure was further verified using 2-dimensional NMR and high-resolution MS experiments. […] The newly introduced carbon was also observed in the ^13C-NMR experiment, confirming formation of aldol product 2-HMB-CoA by KsCcr.
The reaction was diluted 10 times into 5% methanol/Buffer 8.1 and analyzed by HPLC over an Agilent Eclipse Plus C18, 3.5 μm 100 Å, 100×2.1 mm, […] column using 5% to 30% acetonitrile gradient over 7.5 min with 25 mM ammonium formate pH=8.1 as the aqueous phase.

KsCcr [2] = assay: Reductive aldol reaction with longer chain aldehydes (acetaldehyde, propionaldehyde): product share and diastereomeric ratio by LC-MS; assay type: biochemical, Kitasatospora setae
Description: The reaction catalyzed by KsCcr generates an (S)-configured stereocenter at the α-position of the reaction product. When using higher substituted aldehydes, a second stereocenter would be generated at the β-position, which would be highly interesting for synthetic organic applications. It was first tested, whether KsCcr would accept longer chain aldehydes. Indeed, in the presence of 500 mM acetaldehyde, the enzyme formed 35% of 2-ethyl-3-hydroxybutyryl-CoA (2-EHB-CoA) over total products, with substantial amounts of butyryl-CoA as a side product. To improve yield, an acyl-CoA oxidase was used to continually recycle the side product butyryl-CoA back into the substrate crotonyl-CoA. With this proof-reading strategy the yield of the reaction could be increased up to 72%. High resolution mass spectrometry together with ^1H^−1H COSY and ^13C-NMR experiments confirmed the structure of 2-EHB-CoA.
To determine the stereochemistry at the β-position the reaction was analyzed by LC-MS and compared the retention times to chemically synthesized (2S,3R)-EHB-CoA and (2S,3S)-EHB-CoA standards.
Determination of CoA esters was performed using a HRES-LC-MS. The chromatographic separation was performed on an Thermo Scientific Vanquish HPLC System using a Kinetex Evo C18 column ([…], 100 Å, 1.7 μm, Phenomenexc) equipped with a 20×2.1 mm guard column of similar specificity at a constant eluent flow rate of 0.3 mL/min and a column temperature of 40° C. with eluent A being 50 mM ammonium formate pH=8.1 and eluent B being MeOH (Honeywell) The injection volume was 1 μl. […]

Molecule	Ratio of 2-HMB-CoA formed over total products (KsCcr [1]; 5 mM formaldehyde)	2-HMB-CoA produced (reductive aldol product) (KsCcr [1]; 75 mM formaldehyde) [%]	Ratio of 2-HMB-CoA formed over total products (KsCcr [1]; 75 mM formaldehyde)	yield of the reaction (2-EHB-CoA) (KsCcr [2]; 500 mM acetaldehyde with acyl-CoA oxidase recycling butyryl-CoA to crotonyl-CoA (proof-reading))	2-ethyl-3-hydroxybutyryl-CoA (2-EHB-CoA) over total products (KsCcr [2]; 500 mM acetaldehyde, butyryl-CoA as side product) [%]	conversion with propionaldehyde (KsCcr [2]; compared with formaldehyde or acetaldehyde, product detected by MS)	aldol product generated (KsCcr [1]; ambient conditions, CO2 not strictly avoided) [%]
KsCcr variant His365Asn: KsCcr active site variant His365Asn, SEQ ID NO: 19 (protein, KsCcr variant His365Asn) MQEILDAILSGDAASADYAALALPESYRAVTLHKGEERMFDGLASRDKDPRKSLHLDDVPLPELGPGEALVAVMASSVNYNTVWSSIFEPVSTFGFLERYGRLSPLTARHDLPYHVLGSDLAGVVLRTGAGVNAWKPGDEVVAHCLSVELESPDGHNDTMMDPEQRIWGFETNFGGLAQLALVKTNQLLPKPKHLTWEEAASPGLVNSTAYRQLVSRNGAGLKQGDNVLIWGASGGLGSYATQYALAGGATPICVVSSPRKADICRAMGAEAIIDRSAEGYRFWKDEHHQDPREWKRLGGKIREFTGGEDVDIVFEHPGRETFGASVYVTRKGGTIVTCASTSGYMHQYDNRYLWMSLKRIVGSNFANYREAFEANRLVAKGKIHPTLSKVYALEETGQAALDVHHNKHQGKVGVLCLAPREGLGVTDPELRSKHLTKINAFRNV	42 ± 1	89	89 ± 0				
KsCcr WT: wild type crotonyl-CoA carboxylase/reductase obtained from Kitasatospora setae, SEQ ID NO: 1 (protein, Kitasatospora setae KsCCR crotonyl-CoA carboxylase/reductase) MQEILDAILSGDAASADYAALALPESYRAVTLHKGEERMFDGLASRDKDPRKSLHLDDVPLPELGPGEALVAVMASSVNYNTVWSSIFEPVSTFGFLERYGRLSPLTARHDLPYHVLGSDLAGVVLRTGAGVNAWKPGDEVVAHCLSVELESPDGHNDTMMDPEQRIWGFETNFGGLAQLALVKTNQLLPKPKHLTWEEAASPGLVNSTAYRQLVSRNGAGLKQGDNVLIWGASGGLGSYATQYALAGGATPICVVSSPRKADICRAMGAEAIIDRSAEGYRFWKDEHHQDPREWKRLGGKIREFTGGEDVDIVFEHPGRETFGASVYVTRKGGTIVTCASTSGYMHQYDNRYLWMSLKRIVGSHFANYREAFEANRLVAKGKIHPTLSKVYALEETGQAALDVHHNKHQGKVGVLCLAPREGLGVTDPELRSKHLTKINAFRNV	72 ± 1±		96 ± 0	up to 72%	35	strongly decreased	> 95
KsCcr variant Glu171Ala: KsCcr variant Glu171Ala, SEQ ID NO: 24 (protein, KsCcr variant Glu171Ala) MQEILDAILSGDAASADYAALALPESYRAVTLHKGEERMFDGLASRDKDPRKSLHLDDVPLPELGPGEALVAVMASSVNYNTVWSSIFEPVSTFGFLERYGRLSPLTARHDLPYHVLGSDLAGVVLRTGAGVNAWKPGDEVVAHCLSVELESPDGHNDTMMDPEQRIWGFATNFGGLAQLALVKTNQLLPKPKHLTWEEAASPGLVNSTAYRQLVSRNGAGLKQGDNVLIWGASGGLGSYATQYALAGGATPICVVSSPRKADICRAMGAEAIIDRSAEGYRFWKDEHHQDPREWKRLGGKIREFTGGEDVDIVFEHPGRETFGASVYVTRKGGTIVTCASTSGYMHQYDNRYLWMSLKRIVGSHFANYREAFEANRLVAKGKIHPTLSKVYALEETGQAALDVHHNKHQGKVGVLCLAPREGLGVTDPELRSKHLTKINAFRNV	43 ± 0		89 ± 0				
KsCcr variant Ser119Ala: KsCcr variant Ser119Ala, SEQ ID NO: 22 (protein, KsCcr variant Ser119Ala) MQEILDAILSGDAASADYAALALPESYRAVTLHKGEERMFDGLASRDKDPRKSLHLDDVPLPELGPGEALVAVMASSVNYNTVWSSIFEPVSTFGFLERYGRLSPLTARHDLPYHVLGADLAGVVLRTGAGVNAWKPGDEVVAHCLSVELESPDGHNDTMMDPEQRIWGFETNFGGLAQLALVKTNQLLPKPKHLTWEEAASPGLVNSTAYRQLVSRNGAGLKQGDNVLIWGASGGLGSYATQYALAGGATPICVVSSPRKADICRAMGAEAIIDRSAEGYRFWKDEHHQDPREWKRLGGKIREFTGGEDVDIVFEHPGRETFGASVYVTRKGGTIVTCASTSGYMHQYDNRYLWMSLKRIVGSHFANYREAFEANRLVAKGKIHPTLSKVYALEETGQAALDVHHNKHQGKVGVLCLAPREGLGVTDPELRSKHLTKINAFRNV	37 ± 3	83	83 ± 0				
KsCcr variant Asn81Asp: KsCcr active site variant Asn81Asp, no SEQ ID given (protein) MQEILDAILSGDAASADYAALALPESYRAVTLHKGEERMFDGLASRDKDPRKSLHLDDVPLPELGPGEALVAVMASSVNYDTVWSSIFEPVSTFGFLERYGRLSPLTARHDLPYHVLGSDLAGVVLRTGAGVNAWKPGDEVVAHCLSVELESPDGHNDTMMDPEQRIWGFETNFGGLAQLALVKTNQLLPKPKHLTWEEAASPGLVNSTAYRQLVSRNGAGLKQGDNVLIWGASGGLGSYATQYALAGGATPICVVSSPRKADICRAMGAEAIIDRSAEGYRFWKDEHHQDPREWKRLGGKIREFTGGEDVDIVFEHPGRETFGASVYVTRKGGTIVTCASTSGYMHQYDNRYLWMSLKRIVGSHFANYREAFEANRLVAKGKIHPTLSKVYALEETGQAALDVHHNKHQGKVGVLCLAPREGLGVTDPELRSKHLTKINAFRNV	1 ± 0		11 ± 0				
KsCcr variant Thr82Asp: KsCcr variant Thr82Asp, SEQ ID NO: 21 (protein, KsCcr variant Thr82Asp) MQEILDAILSGDAASADYAALALPESYRAVTLHKGEERMFDGLASRDKDPRKSLHLDDVPLPELGPGEALVAVMASSVNYNDVWSSIFEPVSTFGFLERYGRLSPLTARHDLPYHVLGSDLAGVVLRTGAGVNAWKPGDEVVAHCLSVELESPDGHNDTMMDPEQRIWGFETNFGGLAQLALVKTNQLLPKPKHLTWEEAASPGLVNSTAYRQLVSRNGAGLKQGDNVLIWGASGGLGSYATQYALAGGATPICVVSSPRKADICRAMGAEAIIDRSAEGYRFWKDEHHQDPREWKRLGGKIREFTGGEDVDIVFEHPGRETFGASVYVTRKGGTIVTCASTSGYMHQYDNRYLWMSLKRIVGSHFANYREAFEANRLVAKGKIHPTLSKVYALEETGQAALDVHHNKHQGKVGVLCLAPREGLGVTDPELRSKHLTKINAFRNV	14 ± 1	57	57 ± 1				
